The source of these data is CN118290581A (ZHEJIANG ZHENGXI BIOTECHNOLOGY CO LTD, dated 2024).

The target of test [1] is T1, 人CD138 (human, UniProt P18827 23-310).
T1 construct: whole, on cells; also called syndecan-1; CD138靶抗原
T1 sequence (looked up): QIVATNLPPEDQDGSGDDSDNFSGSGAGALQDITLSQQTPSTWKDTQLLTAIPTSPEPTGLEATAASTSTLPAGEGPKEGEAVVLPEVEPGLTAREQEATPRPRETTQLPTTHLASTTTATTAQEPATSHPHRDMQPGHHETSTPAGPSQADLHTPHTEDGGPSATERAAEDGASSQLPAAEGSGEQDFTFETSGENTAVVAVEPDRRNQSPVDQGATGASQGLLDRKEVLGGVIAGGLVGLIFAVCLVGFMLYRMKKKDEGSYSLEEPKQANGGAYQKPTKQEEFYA
As to the kind of experiment: flow cytometry titration of antibody dilutions (from 1 mg/mL) on cultured activated human cells, goat anti-mouse IgG-PE detection.

Test [2] has as its target T1, 人CD138. As to the kind of experiment: flow cytometry, APC-labelled antibody on cultured activated cells.

B1: 鼠抗人CD138[ZXCloneHCD138-02]抗体 (antibody, mouse IgG1, kappa, V domains shown)
VH: QVQLQQPGSVLVRPGASVKLSCKTSGYTFTSSWMHWAKQRPGQGLEWIGEIHPNGGNTYYNEKFKGKATLSVDTSSSTAYVDLSSLTSEDSAVYFCATPHYWGQGTTLTVSS
VL: DVVMTQTPLSLPVSLGDQASISCRCRQSLVHSNGNTYLQWYLQKPGQSPILLIYRVSNRFSGVPDRFSGSGSGTDFTLKISRVEAEDLGVYFCSQSTHVPHTFGAGTKLELKR
On to B1, for which the 亲和力(kd) in the test with 人CD138 [1] was found to be 25.2.

B2: 自制鼠抗人CD138[ZXCloneHCD138-02]-APC (antibody, mouse IgG1, kappa, V domains shown)
VH: QVQLQQPGSVLVRPGASVKLSCKTSGYTFTSSWMHWAKQRPGQGLEWIGEIHPNGGNTYYNEKFKGKATLSVDTSSSTAYVDLSSLTSEDSAVYFCATPHYWGQGTTLTVSS
VL: DVVMTQTPLSLPVSLGDQASISCRCRQSLVHSNGNTYLQWYLQKPGQSPILLIYRVSNRFSGVPDRFSGSGSGTDFTLKISRVEAEDLGVYFCSQSTHVPHTFGAGTKLELKR
modifications: APC-labelled (site and chain not stated)
In the case of B2, the binding result in the test with 人CD138 [2] was “binds”.
